Among the data in PMC8892158 are apparent KM of FakB1 in the FA kinase assay with 0.2 μM FakA, apparent KM of FakB1(A158L) in the FA kinase assay with 0.2 μM FakA and apparent KM of FakB1(A121I) in the FA kinase assay with 0.2 μM FakA values, retold here.

In the assay the target is Staphylococcus aureus FakA (S. aureus).

For “Staphylococcus aureus FakB1 (wild type), palmitate-loaded (from UniProt X5EH37 1-288) (natural protein)”, the apparent KM of FakB1 in the FA kinase assay with 0.2 μM FakA is 0.13 µM.
In the case of “Staphylococcus aureus FakB1(A158L), myristate-loaded (from UniProt X5EH37 1-288) (natural protein)”, the apparent KM of FakB1(A158L) in the FA kinase assay with 0.2 μM FakA was determined as 0.13 µM.
As to “Staphylococcus aureus FakB1(A121I), palmitate-loaded (from UniProt X5EH37 1-288) (natural protein)”, the apparent KM of FakB1(A121I) in the FA kinase assay with 0.2 μM FakA came to 0.1 µM.
